In PMC9994480, “Infancy‐onset diabetes caused by de‐regulated AMPylation of the human endoplasmic reticulum chaperone BiP” (EMBO Molecular Medicine, 2023):

Molecular target: the molecule itself
Assay: SEC; analytical SEC, Agilent Bio SEC-3 HPLC column, TNT buffer (25 mM Tris pH 8.0, 150 mM NaCl, 1 mM TCEP), 25°C; proteins diluted to a range of concentrations (Fig 3B) and incubated at least 1 h at room temperature; 0.3 ml/min

B1: wild-type FICD, structured luminal domain (residues 104–445) (enzyme, human, UniProt Q9BVA6 104-445, looked up)
chain: LEARAALNQALEMKRQGKREKAQKLFMHALKMDPDFVDALTEFGIFSEEDKDIIQADYLYTRALTISPYHEKALVNRDRTLPLVEEIDQRYFSIIDSKVKKVMSIPKGNSALRRVMEETYYHHIYHTVAIEGNTLTLSEIRHILETRYAVPGKSLEEQNEVIGMHAAMKYINTTLVSRIGSVTISDVLEIHRRVLGYVDPVEAGRFRTTQVLVGHHIPPHPQDVEKQMQEFVQWLNSEEAMNLHPVEFAALAHYKLVYIHPFIDGNGRTSRLLMNLILMQAGYPPITIRKEQRSDYYHVLEAANEGDVRPFIRFIAKCTETTLDTLLFATTEYSVALPEAQP
notes: human FICD, structured region, residues 104-445; The methods say His6-SUMO fusion (cleaved by Ulp1) or GST fusion (cleaved by TEV) without telling which for which protein; Purification as in Perera et al, 2019, 2021; also called WT; FICD^WT; not shown: His6-SUMO (or GST)
  stoichiometry N: 2

B2: FICD^R371S, structured luminal domain (residues 104–445) (enzyme, human, UniProt Q9BVA6 104-445, looked up)
chain: LEARAALNQALEMKRQGKREKAQKLFMHALKMDPDFVDALTEFGIFSEEDKDIIQADYLYTRALTISPYHEKALVNRDRTLPLVEEIDQRYFSIIDSKVKKVMSIPKGNSALRRVMEETYYHHIYHTVAIEGNTLTLSEIRHILETRYAVPGKSLEEQNEVIGMHAAMKYINTTLVSRIGSVTISDVLEIHRRVLGYVDPVEAGRFRTTQVLVGHHIPPHPQDVEKQMQEFVQWLNSEEAMNLHPVEFAALAHYKLVYIHPFIDGNGSTSRLLMNLILMQAGYPPITIRKEQRSDYYHVLEAANEGDVRPFIRFIAKCTETTLDTLLFATTEYSVALPEAQP
notes: human FICD, structured region, residues 104-445, with the patients' variant p.(Arg371Ser); Variant found homozygous in patients (NM_007076.2:c.1113G>C); also called Arg371Ser mutant FICD; FICD p.(Arg371Ser); not shown: His6-SUMO (or GST)
  stoichiometry N: 2
